Test results reported in patent US20090263380A1 (published 2009).

Columns and labels:
[1] = molecular target: T1, human monoclonal anti-C1 domain of Factor VIII antibody RHD5; assay: competition ELISA, 18B6 with RHD5 2 µg/ml, RHD5 binding to coated recFVIII
T1 construct: also called RHD5 antibody; RHD5 Ab
Method: Recombinant Factor VIII (recFVIII) (Baxter) at 2 μg/ml in a glycine buffer, 50 μl/well, was insolubilized, then left for 2 hours at room temperature. The RHD5 antibody (or an irrelevant IgG1) at 0.6 μg/ml final concentration was pre-incubated over 2 hours with the culture supernatants in a dilution 1/1, 1/2 and 1/4 in Magic Buffer. The wells were washed 3 times with a PBS/Tween buffer, then saturated with 100 μl/well of Magic Buffer (30 min at room temperature). Afterwards, the culture supernatant was incubated with 50 μl of RHD5 (or irrelevant IgG1) (2 hours at room temperature, Magic Buffer), then, 3 washings were performed. The RHD5 antibodies bound to insolubilized recFVIII were detected by addition of 50 μl/well of a mouse polyclonal human anti-IgG HRP-labelled (Southern Biotechnology) antibodies solution of 1 μg/ml in Magic Buffer. Three successive washings were carried out with PBS/Tween, then revelation carried out with a chromogen (OPD ortho-phenyl diamine) and a reading of the obtained coloration intensity with a reader having filters corresponding to wavelengths 490/650 nm (reader Emax Molecular Devithese, Sunnyvale, Calif.).
The inhibition of RHD5 antibody binding to insolubilized recombinant FVIII was measured according to the protocol described in point IV. The concentration of used RHD5 is equal to 2 μg/ml.

[2] = molecular target: T1, human monoclonal anti-C1 domain of …; assay: SPR (BIAcore), RHD5 immobilized on CM5, 18B6 infused
Method: The binding kinetics of the anti-idiotypic antibody 18B6 to inhibitor RHD5 antibody was evaluated by use of the <<Surface plasmon resonance Biacore>> method using the Pharmacia Biosensor BIAcore (Pharmacia Biosensor AB, Uppsala, Sweden). The RHD5 antibodies were immobilized on the activated surface of a CM5 probe. The anti-idiotypic antibodies 18B6 were infused in different RHD5 concentrations immobilized on the surface of the probe. The association and dissociation constants were determined: […]

[3] = molecular target: T1, human monoclonal anti-C1 domain of …; assay: cell-based or functional assay

T1 sequence (VH, as listed by the source, chain 1 of 2): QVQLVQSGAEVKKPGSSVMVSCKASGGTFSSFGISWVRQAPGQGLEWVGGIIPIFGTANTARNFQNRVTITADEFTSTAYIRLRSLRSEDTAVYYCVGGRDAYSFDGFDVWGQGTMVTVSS
T1 sequence (VL, as listed by the source, chain 2 of 2): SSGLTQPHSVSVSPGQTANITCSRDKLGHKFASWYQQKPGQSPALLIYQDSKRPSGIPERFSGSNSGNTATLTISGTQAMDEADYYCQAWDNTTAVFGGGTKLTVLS

inhibition of binding at an equimolar ratio (%) [1]: 92% | molar ratio RHD5/18B6 giving 50% inhibition [1]: 2.5 molar ratio RHD5/18B6 | Kd [2]: 3.4 nM | koff [2]: 1.45e-05 s⁻¹ | kon [2]: 4260 M⁻¹ s⁻¹ | neutralisation of RHD5 inhibitory activity at an equimolar RHD5/18B6 ratio [3]: 50%
B1: anti-idiotypic antibody 18B6 (antibody, V domains shown)
VH: QVQLQQSGAELAKPGASVKMSCKASGYTFTTYWMHWIKQRPGQDLEWIGYINPTSGYTEYNQNFKDKATLTADKSSSTAYMQLNSLTSEDSAVYFCARSGAYYRYDDAMDSWGQGTSVTVSS
VL: QIVLSQSPAILSASPGEKVTMTCRASSSVSYMNWYQQKPGSSPKPWIYATSNLASGVPARFSGSGSGTSYSLTISRVEAEDAATYYCQQWSSNPPMLTFGAGTKLELK
notes: also called 18B6 anti-RHD5 clone
